Measurements as given in US20050282739A1 (PALATIN TECHNOLOGIES, published 2005).
Like-named read-outs stand apart in the source and are kept apart here. Square brackets hold non-standard residues; d marks the D form. Ends that are not written are not given here.

Assays:
[1] = target: T1, human melanocortin-4 receptor (hMC4-R) (human, UniProt P32245 1-332); test: 125I-NDP-α-MSH competition, hMC4-R membranes
T1 construct: whole, on cells; membranes prepared from hMC4-R cells were used; also called Melanocortin Receptor 4
T1 sequence (P32245 whole entry): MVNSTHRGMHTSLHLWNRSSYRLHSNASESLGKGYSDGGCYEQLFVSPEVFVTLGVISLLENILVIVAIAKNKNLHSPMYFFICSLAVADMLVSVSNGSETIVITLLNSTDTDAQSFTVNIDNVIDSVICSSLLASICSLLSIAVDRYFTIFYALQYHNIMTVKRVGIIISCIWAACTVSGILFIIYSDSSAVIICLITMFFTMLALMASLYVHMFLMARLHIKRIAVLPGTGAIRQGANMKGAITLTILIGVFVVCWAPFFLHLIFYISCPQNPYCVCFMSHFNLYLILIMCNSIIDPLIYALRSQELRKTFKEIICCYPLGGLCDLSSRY
Description: (§1) The competitive inhibition binding assay was conducted using membranes prepared from hMC3-R, hMC4-R, hMC5-R, and B-16 mouse melanoma cells (containing MC1-R) using 0.4 nM ¹²⁵I-NDP-alpha-MSH (New England Nuclear, Boston, Mass., USA) in 50 mM HEPES buffer containing 1 mM MgCl₂, 2 mM CaCl₂, and 5 mM KCl, at pH 7.2. […] Incubation was for 90 minutes at room temperature, after which the assay mixture was filtered and the membranes washed three times with ice cold buffer. The filter was dried and counted in a gamma counter for remaining radioactivity bound to the membranes. 100% specific binding was defined as the difference in radioactivity (cpm) bound to cell membranes in the absence and presence of 1 μM α-MSH. […] Each assay was conducted in triplicate and the actual mean valves are described.
(§2) The first unnumbered peptide in Table 3 is the parent polypeptide, which is a Nle³, D-Phe⁶ substituted γ-MSH analog specific for melanocortin receptors. The methods and assays set forth in Example 1 were followed.

[2] = target: T2, human melanocortin-3 receptor (hMC3-R) (human, UniProt P41968 1-323); test: 125I-NDP-α-MSH competition, hMC3-R membranes
T2 construct: whole, on cells; membranes prepared from hMC3-R cells were used; also called Melanocortin Receptor 3
T2 sequence (P41968 whole entry): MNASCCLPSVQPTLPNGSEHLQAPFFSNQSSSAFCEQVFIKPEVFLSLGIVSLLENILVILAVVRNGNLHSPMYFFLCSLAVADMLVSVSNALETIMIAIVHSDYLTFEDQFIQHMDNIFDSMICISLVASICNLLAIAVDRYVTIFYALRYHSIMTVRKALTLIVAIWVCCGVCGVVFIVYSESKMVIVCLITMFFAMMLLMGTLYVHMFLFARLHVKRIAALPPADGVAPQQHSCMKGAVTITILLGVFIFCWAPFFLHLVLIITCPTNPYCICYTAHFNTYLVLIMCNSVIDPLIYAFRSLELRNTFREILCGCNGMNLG
Description: as §1, §2

[3] = target: T3, melanocortin-1 receptor (MC1-R) of B-16 mouse melanoma cells (mouse, UniProt Q01727 1-315); test: 125I-NDP-α-MSH competition, B-16 membranes
T3 construct: whole, on cells; membranes prepared from the cells were used; also called Melanocortin Receptor 1
T3 sequence (Q01727 whole entry): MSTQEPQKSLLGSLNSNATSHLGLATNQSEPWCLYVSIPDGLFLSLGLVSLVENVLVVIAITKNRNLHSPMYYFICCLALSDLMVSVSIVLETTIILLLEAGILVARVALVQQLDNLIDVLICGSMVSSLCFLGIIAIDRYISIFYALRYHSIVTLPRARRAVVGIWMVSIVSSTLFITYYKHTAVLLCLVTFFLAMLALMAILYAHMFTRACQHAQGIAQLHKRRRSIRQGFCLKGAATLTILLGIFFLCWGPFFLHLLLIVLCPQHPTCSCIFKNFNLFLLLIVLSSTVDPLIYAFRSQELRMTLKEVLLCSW
Description: as §1
(§3) The first unnumbered peptide in Table 5 is the parent polypeptide, which is a γ-MSH analog specific for melanocortin receptors. The methods and assays set forth in Example 1 were followed.

[4] = target: T1, human melanocortin-4 receptor (hMC4-R); test: 125I-NDP-α-MSH competition, hMC4-R membranes; remark: listed apart in the source
Description: as §1, §3

[5] = target: T4, human melanocortin-5 receptor (hMC5-R) (human, UniProt P33032 1-325); test: 125I-NDP-α-MSH competition, hMC5-R membranes
T4 construct: whole, on cells; membranes prepared from hMC5-R cells were used; also called Melanocortin Receptor 5
T4 sequence (P33032 whole entry): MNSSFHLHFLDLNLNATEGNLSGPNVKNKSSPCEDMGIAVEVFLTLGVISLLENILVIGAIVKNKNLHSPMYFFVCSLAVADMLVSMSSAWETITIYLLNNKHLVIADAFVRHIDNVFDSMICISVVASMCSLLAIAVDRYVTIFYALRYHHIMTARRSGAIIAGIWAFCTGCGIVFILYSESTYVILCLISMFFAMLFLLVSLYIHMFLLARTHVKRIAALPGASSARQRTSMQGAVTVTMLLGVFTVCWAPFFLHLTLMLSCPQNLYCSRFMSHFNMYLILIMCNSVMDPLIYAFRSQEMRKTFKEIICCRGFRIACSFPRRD
Description: as §1, §2

[6] = target: T3, melanocortin-1 receptor (MC1-R) of B-16 …; test: 125I-NDP-α-MSH competition, B-16 membranes; remark: listed apart in the source
Description: as §1, §2

[7] = target: T4, human melanocortin-5 receptor (hMC5-R); test: 125I-NDP-α-MSH competition, hMC5-R membranes; remark: listed apart in the source
Description: as §1, §3

[8] = target: T2, human melanocortin-3 receptor (hMC3-R); test: 125I-NDP-α-MSH competition, hMC3-R membranes; remark: listed apart in the source
Description: as §1, §3

Binder | % Inhibition at 1 µM [1] | % Inhibition at 1 µM [2] | % Inhibition at 1 µM [3] | % Inhibition at 1 µM [4] | % Inhibition at 1 µM [5] | % Inhibition at 1 µM [6] | % Inhibition at 1 µM [7] | % Inhibition at 1 µM [8]
YVXGHFRWDRF (Nle 3 (X in letters); D-Phe 6; C-terminal amide, not complexed to Re) [[Nle3, D-Phe6]-γ-MSH parent polypeptide Tyr-Val-Nle-Gly-His-D-Phe-Arg-Trp-Asp-Arg-Phe-NH2] | 99% | 100% | 99% | 99% | 100% | 99% | 100% | 100%
YVCGH[dF]RWDRF-NH2 (also: oxorhenium(V) N3S1 chelate complex at Cys3) [metallopeptide 5-9] |  |  | 89% | 66% |  |  | 53% | 53%
